In US10464978B2, “Peptides and combination of peptides for use in immunotherapy against ovarian cancer and other cancers” (immatics biotechnologies GmbH, priority 2015, dated 2019):

target: HLA-A*02:01 (Homo sapiens, UniProt P04439, D140Y/D185E/D98H/E176V/E277Q/G131W/G231S/I119V/I121R/I166T/I218V/L300P/L318F/N151K/N90K/P208A/P217A/Q86G/Q94H/R138H/R169H/T345S); test: MHC binding assay: UV-ligand exchange with beta2m ELISA (peptide exchange yield); conditions: binding to HLA-A*02:01
Source text: Candidate peptides for T cell based therapies according to the present invention were further tested for their MHC binding capacity (affinity). The individual peptide-MHC complexes were produced by UV-ligand exchange, where a UV-sensitive peptide is cleaved upon UV-irradiation, and exchanged with the peptide of interest as analyzed. Only peptide candidates that can effectively bind and stabilize the peptide-receptive MHC molecules prevent dissociation of the MHC complexes. To determine the yield of the exchange reaction, an ELISA was performed based on the detection of the light chain ([…]) of stabilized MHC complexes. The assay was performed as generally described in Rodenko et al. (Rodenko et al., 2006).
96 well MAXISorp plates (NUNC) were coated over night with 2 ug/ml streptavidin in PBS at room temperature, washed 4× and blocked for 1 h at 37° C. in 2% BSA containing blocking buffer. […] Peptide-MHC monomers of the UV-exchange reaction were diluted 100 fold in blocking buffer. Samples were incubated for 1h at 37° C., washed four times, incubated with 2 ug/ml HRP conjugated anti-β2m for 1h at 37° C., washed again and detected with TMB solution that is stopped with […]. Absorption was measured at 450 nm. Candidate peptides that show a high exchange yield (preferably higher than 50%, most preferred higher than 75%) are generally preferred for a generation and production of antibodies or fragments thereof, and/or T cell receptors or fragments thereof, as they show sufficient avidity to the MHC molecules and prevent dissociation of the MHC complexes.

Q: For “62 (VLLDVSAGQLLM; listed as Homo sapiens) [compound 62]”, which “Peptide exchange (MHC class I binding score, peptide exchange yield)” value (shortened to “Peptide exchange”) is on record?
A: “++++” (≥75% = ++++)

Q: Which “Peptide exchange” value does the source give for “254 (TLLAFIMEL; listed as Homo sapiens) [compound 254]” here?
A: “+++” (≥50 = +++)

Q: “442 (GLLGGGGVLGV; listed as Homo sapiens) [compound 442]” was tested. Which “Peptide exchange” value did it give?
A: “+++” (≥50 = +++)

Q: Which “Peptide exchange” value does the source give for “517 (LLMPIPEGLTL; listed as Homo sapiens) [compound 517]” here?
A: “+++” (≥50 = +++)

Q: Which “Peptide exchange” value does the source give for “562 (YLEELPEKLKL; listed as Homo sapiens) [compound 562]” here?
A: “+++” (≥50 = +++)

Q: Which “Peptide exchange” value does the source give for “210 (LLLNAVLTV; listed as Homo sapiens) [compound 210]” here?
A: “++” (≥20% = ++)

Q: “514 (ILVDWLVQV; listed as Homo sapiens) [compound 514]” was tested. Which “Peptide exchange” value did it give?
A: “+++” (≥50 = +++)

Q: For “357 (SMHDLVLQV; listed as Homo sapiens) [compound 357]”, which “Peptide exchange” value is on record?
A: “+++” (≥50 = +++)

Q: “224 (TLIDAQWVL; listed as Homo sapiens) [compound 224]” was tested. Which “Peptide exchange” value did it give?
A: “+++” (≥50 = +++)

Q: Which “Peptide exchange” value does the source give for “286 (YLFPGIPEL; listed as Homo sapiens) [compound 286]” here?
A: “+++” (≥50 = +++)

Q: “431 (SLVNVVPKL; listed as Homo sapiens) [compound 431]” was tested. Which “Peptide exchange” value did it give?
A: “++” (≥20% = ++)

Q: Which “Peptide exchange” value does the source give for “19 (FMVDNEAIYDI; listed as Homo sapiens) [compound 19]” here?
A: “++++” (≥75% = ++++)

Q: With “5 (HLTEVYPEL; listed as Homo sapiens) [compound 5]” as the substance, how does the “Peptide exchange” value read?
A: “+++” (≥50 = +++)

Q: “588 (SLLPLSHLV; listed as Homo sapiens) [compound 588]” was tested. Which “Peptide exchange” value did it give?
A: “+++” (≥50 = +++)

Q: Which “Peptide exchange” value does the source give for “244 (SLFGGTEITI; listed as Homo sapiens) [compound 244]” here?
A: “+++” (≥50 = +++)

Q: “26 (ALLELAEEL; listed as Homo sapiens) [compound 26]” was tested. Which “Peptide exchange” value did it give?
A: “+++” (≥50 = +++)

Q: With “154 (ALDDGTPAL; listed as Homo sapiens) [compound 154]” as the substance, how does the “Peptide exchange” value read?
A: “++” (≥20% = ++)

Q: Which “Peptide exchange” value does the source give for “519 (GLLHLTLLL; listed as Homo sapiens) [compound 519]” here?
A: “+++” (≥50 = +++)

Q: “181 (LLWAGTAFQV; listed as Homo sapiens) [compound 181]” was tested. Which “Peptide exchange” value did it give?
A: “+++” (≥50 = +++)

Q: “158 (KLFDVDEDGYI; listed as Homo sapiens) [compound 158]” was tested. Which “Peptide exchange” value did it give?
A: “+++” (≥50 = +++)

Q: “214 (FLLDLDPLLL; listed as Homo sapiens) [compound 214]” was tested. Which “Peptide exchange” value did it give?
A: “+++” (≥50 = +++)

Q: How did the “Peptide exchange” value turn out when “180 (FQIDPHSGLVTV; listed as Homo sapiens) [compound 180]” was run?
A: “++” (≥20% = ++)

Q: For “9 (GAAKDLPGV; listed as Homo sapiens) [compound 9]”, which “Peptide exchange” value is on record?
A: “++” (≥20% = ++)

Q: How did the “Peptide exchange” value turn out when “370 (SLLQDLVSV; listed as Homo sapiens) [compound 370]” was run?
A: “+++” (≥50 = +++)

Q: For “157 (SLNDEVPEV; listed as Homo sapiens) [compound 157]”, which “Peptide exchange” value is on record?
A: “++” (≥20% = ++)

Q: How did the “Peptide exchange” value turn out when “568 (TLYDIAHTPGV; listed as Homo sapiens) [compound 568]” was run?
A: “++++” (≥75% = ++++)

Q: For “623 (YLVEDIQHI; listed as Homo sapiens) [compound 623]”, which “Peptide exchange” value is on record?
A: “+++” (≥50 = +++)

Q: How did the “Peptide exchange” value turn out when “372 (TMLLNIPLV; listed as Homo sapiens) [compound 372]” was run?
A: “++” (≥20% = ++)

Q: “257 (SIFSAFLSV; listed as Homo sapiens) [compound 257]” was tested. Which “Peptide exchange” value did it give?
A: “+++” (≥50 = +++)

Q: Which “Peptide exchange” value does the source give for “71 (GILARIASV; listed as Homo sapiens) [compound 71]” here?
A: “+++” (≥50 = +++)

Q: “471 (YLYNNMIAKI; listed as Homo sapiens) [compound 471]” was tested. Which “Peptide exchange” value did it give?
A: “+++” (≥50 = +++)

Q: How did the “Peptide exchange” value turn out when “579 (NLMEMVAQL; listed as Homo sapiens) [compound 579]” was run?
A: “++” (≥20% = ++)

Q: For “592 (RLLSAAENFL; listed as Homo sapiens) [compound 592]”, which “Peptide exchange” value is on record?
A: “+++” (≥50 = +++)

Q: Which “Peptide exchange” value does the source give for “287 (FLNEFFLNV; listed as Homo sapiens) [compound 287]” here?
A: “+++” (≥50 = +++)

Q: With “194 (ALPLFVITV; listed as Homo sapiens) [compound 194]” as the substance, how does the “Peptide exchange” value read?
A: “+++” (≥50 = +++)

Q: How did the “Peptide exchange” value turn out when “237 (ALLEASGTLLL; listed as Homo sapiens) [compound 237]” was run?
A: “++++” (≥75% = ++++)

Q: With “394 (LLAVIGGLVYL; listed as Homo sapiens) [compound 394]” as the substance, how does the “Peptide exchange” value read?
A: “+++” (≥50 = +++)

Q: With “329 (FLVTLNNVEV; listed as Homo sapiens) [compound 329]” as the substance, how does the “Peptide exchange” value read?
A: “++++” (≥75% = ++++)

Q: “380 (TLIEDEIATI; listed as Homo sapiens) [compound 380]” was tested. Which “Peptide exchange” value did it give?
A: “++” (≥20% = ++)

Q: With “68 (SLMELPRGLFL; listed as Homo sapiens) [compound 68]” as the substance, how does the “Peptide exchange” value read?
A: “++++” (≥75% = ++++)

Q: Which “Peptide exchange” value does the source give for “567 (SLLPLDDIVRV; listed as Homo sapiens) [compound 567]” here?
A: “+++” (≥50 = +++)

Q: “169 (NLPEYLPFV; listed as Homo sapiens) [compound 169]” was tested. Which “Peptide exchange” value did it give?
A: “+++” (≥50 = +++)

Q: “70 (GLLDYPVGV; listed as Homo sapiens) [compound 70]” was tested. Which “Peptide exchange” value did it give?
A: “+++” (≥50 = +++)

Q: With “402 (VLFSGALLGL; listed as Homo sapiens) [compound 402]” as the substance, how does the “Peptide exchange” value read?
A: “++” (≥20% = ++)

Q: For “542 (RVWDISTVSSV; listed as Homo sapiens) [compound 542]”, which “Peptide exchange” value is on record?
A: “+++” (≥50 = +++)

Q: With “25 (FLPDEPYIKV; listed as Homo sapiens) [compound 25]” as the substance, how does the “Peptide exchange” value read?
A: “+++” (≥50 = +++)

Q: How did the “Peptide exchange” value turn out when “297 (VLADIELAQA; listed as Homo sapiens) [compound 297]” was run?
A: “+++” (≥50 = +++)

Q: For “21 (VLDELDMEL; listed as Homo sapiens) [compound 21]”, which “Peptide exchange” value is on record?
A: “++” (≥20% = ++)

Q: How did the “Peptide exchange” value turn out when “205 (SLYPGTETMGL; listed as Homo sapiens) [compound 205]” was run?
A: “+++” (≥50 = +++)

Q: Which “Peptide exchange” value does the source give for “155 (RVANLHFPSV; listed as Homo sapiens) [compound 155]” here?
A: “+++” (≥50 = +++)

Q: Which “Peptide exchange” value does the source give for “173 (LLDSASAGLYL; listed as Homo sapiens) [compound 173]” here?
A: “+++” (≥50 = +++)

Q: For “129 (GLLDGGVDILL; listed as Homo sapiens) [compound 129]”, which “Peptide exchange” value is on record?
A: “+++” (≥50 = +++)

Q: For “208 (KISPVTFSV; listed as Homo sapiens) [compound 208]”, which “Peptide exchange” value is on record?
A: “+++” (≥50 = +++)

Q: For “327 (GLAPFTEGISFV; listed as Homo sapiens) [compound 327]”, which “Peptide exchange” value is on record?
A: “+++” (≥50 = +++)

Q: Which “Peptide exchange” value does the source give for “510 (KLYSVVSQL; listed as Homo sapiens) [compound 510]” here?
A: “++” (≥20% = ++)

Q: Which “Peptide exchange” value does the source give for “455 (SLLKEPQKVQL; listed as Homo sapiens) [compound 455]” here?
A: “++” (≥20% = ++)

Q: With “460 (AMLEKNYKL; listed as Homo sapiens) [compound 460]” as the substance, how does the “Peptide exchange” value read?
A: “++++” (≥75% = ++++)

Q: How did the “Peptide exchange” value turn out when “298 (VMITKLVEV; listed as Homo sapiens) [compound 298]” was run?
A: “+++” (≥50 = +++)

Q: Which “Peptide exchange” value does the source give for “516 (AVGPASILKEV; listed as Homo sapiens) [compound 516]” here?
A: “++” (≥20% = ++)

Q: “186 (TLFFQQNAL; listed as Homo sapiens) [compound 186]” was tested. Which “Peptide exchange” value did it give?
A: “++” (≥20% = ++)

Q: With “531 (YTLPIASSIRL; listed as Homo sapiens) [compound 531]” as the substance, how does the “Peptide exchange” value read?
A: “+++” (≥50 = +++)
